B1: SARS-CoV-2 VHH-cMYC-12xHis-tag (VH ab8) expressed by E. coli WK6 cells from the pHENC6-VHH plasmid (VHH)
VHH: EVQLVESGGGLVQPGGSLRLSCAASGFTFDDYAMSWVRQAPGKGLEWIGRMYNNGRTSYNPSLKSLVTISRDNSKNTLYLQMNSLRAEDTATYYCARDNLGYRPSENLYGMDVWGQGTTVTVSS
notes: also called bacteria-derived VHH antibody; pHENC6-VHH-c-Myc-12xHis-tag
B2: SARS-CoV-2 VHH-cMYC-12xHis-tag (VH ab8) expressed by EXPI293F mammalian cells from pCDNA 3.4 VHH (VHH)
VHH: B1 VHH
notes: also called VHH antibodies obtained in mammalian cells; pCDNA 3.4 VHH-c-Myc-12xHis-tag

Target: T1, recombinant human coronavirus SARS-CoV-2 Spike Glycoprotein RBD, isolate Wuhan-Hu-1 (Abcam), with C-terminal … (SARS-CoV-2, isolate Wuhan-Hu-1, UniProt P0DTC2 319-541)
T1 construct: also called SARS-COV2 spike protein; COVID-19 spike protein
Assay: ELISA, RBD coated, anti-c-Myc-HRP detection

| Binder | binding result |
| --- | --- |
| B1 | binds |
| B2 | binds |

Source: US20240401070A1 (RUTGERS THE STATE UNIVERSITY OF NEW JERSEY, published 2024)
